In publication PMC11984392, “EphA2-targeted alpha-particle theranostics for enhancing PDAC treatment” (Theranostics, 2025):
*1 amine or outer side, *2 acyl side, *3 side chain or, on linkers, in order; H or OH if unused. Bridges are numbered along the chain shown (N, C = ends). Primed or numbered codes have the meaning given here. [ ]: non-standard residue; d: D form. The star is where a group is joined. DOTA = O=C(O)CN1CCN(CC(=O)O)CCN(CC(=O)*)CCN(CC(=O)O)CC1; TATA = O=C(CC[*:1])N1CN(C(=O)CC[*:2])CN(C(=O)CC[*:3])C1; NOTA = O=C(O)CN1CCN(CC(=O)O)CCN(CC(=O)*)CC1; Hyp = O=C(O)[C@@H]1C[C@@H](O)CN1; hArg = N=C(N)NCCCC[C@H](N)C(=O)O; PEG2′ = not defined here; Sar = CNCC(=O)O

B1: AJ210 (peptide)
chain: {DOTA}-A[hArg]DC[Hyp]LVNPLCLHP[dD]W[hArg]C-NH2
modifications: linker 4-11-18 via TATA
SMILES: CC(C)C[C@@H]1NC(=O)[C@@H]2CSCCC(=O)N3CN(CN(C3)C(=O)CCSC[C@H](NC(=O)[C@H](CC(=O)O)NC(=O)[C@H](CCCCNC(=N)N)NC(=O)[C@H](C)NC(=O)CN3CCN(CC(=O)O)CCN(CC(=O)O)CCN(CC(=O)O)CC3)C(=O)N3C[C@H](O)C[C@H]3C(=O)N[C@@H](CC(C)C)C(=O)N[C@@H](C(C)C)C(=O)N[C@@H](CC(N)=O)C(=O)N3CCC[C@H]3C(=O)N[C@@H](CC(C)C)C(=O)N2)C(=O)CCSC[C@@H](C(N)=O)NC(=O)[C@H](CCCCNC(=N)N)NC(=O)[C@H](Cc2c[nH]c3ccccc23)NC(=O)[C@@H](CC(=O)O)NC(=O)[C@@H]2CCCN2C(=O)[C@H](Cc2c[nH]cn2)NC1=O
B2: AJ201 (peptide)
peptide: {NOTA-PEG2′}-GR[Sar][Sar][Sar]GA[hArg]DC[Hyp]LVNPLCLHP[dD]W[hArg]C-NH2
modifications: linker 10-17-24 via TATA; not fully specified; also: hydroxyproline, place not given here
notes: also called non-radioactive AJ201; bicyclic peptide AJ201; source: synthetic peptide, synthesized by CPC Scientific Inc., >90% purity

How the values were obtained:
Conditions in all cases: both partners purified
[1] = biological target: T1, His-tagged human EphA2 (human, UniProt P29317 24-537); assay: SPR; Biacore T200, CM5 chip, 25 °C; His-tagged human EphA2 captured on immobilised anti-His antibody (FC2); AJ210 as analyte, 0.625-80 nM, in HBS-P + 0.1% DMSO, 50 μL/min, contact 120 s, dissociation 600 s; 1:1 kinetics model
T1 construct: human EphA2 (Ephrin receptor A2), recombinant, 56.9 kDa; also called recombinant human EphA2 protein; hEphA2; source: bought: R&D systems, catalog # 3035-A2
T1 sequence (P29317 24-537): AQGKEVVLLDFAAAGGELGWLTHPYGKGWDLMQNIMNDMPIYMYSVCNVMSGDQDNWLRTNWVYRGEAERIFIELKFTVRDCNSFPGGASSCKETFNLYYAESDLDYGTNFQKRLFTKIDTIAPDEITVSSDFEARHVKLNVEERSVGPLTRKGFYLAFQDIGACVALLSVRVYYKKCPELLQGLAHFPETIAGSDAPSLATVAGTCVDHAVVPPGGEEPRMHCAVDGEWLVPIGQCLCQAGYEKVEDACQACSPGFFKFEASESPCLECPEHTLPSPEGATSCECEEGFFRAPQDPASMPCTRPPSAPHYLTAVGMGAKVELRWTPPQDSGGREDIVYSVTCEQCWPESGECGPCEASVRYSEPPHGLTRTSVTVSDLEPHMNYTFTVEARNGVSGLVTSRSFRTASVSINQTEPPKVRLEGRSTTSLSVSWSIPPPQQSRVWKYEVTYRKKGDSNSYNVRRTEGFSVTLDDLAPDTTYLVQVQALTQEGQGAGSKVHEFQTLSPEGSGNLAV

[2] = biological target: T2, His-tagged human EphA2 (human, UniProt P29317 24-537); assay: SPR; Biacore T200, CM5 chip, 25 °C; His-tagged EphA2 captured (~750 RU) on amine-coupled anti-His antibody; peptide as analyte in HBS-P (10 mM HEPES pH 7.4, 150 mM NaCl, 0.05% P20) + 0.1% DMSO, 50 μL/min, contact 120 s, dissociation 600 s; 1:1 kinetics model
T2 construct: Human EphA2 (Ephrin receptor A2), recombinant, His-tagged, printed as 56.9 kDa; also called hEphA2; recombinant human EphA2; source: bought: R&D systems, catalog # 3035-A2
T2 sequence (P29317 24-537): as above

[3] = biological target: T3, His-tagged mouse EphA2 (mouse, UniProt Q03145 26-538); assay: as above
T3 construct: Mouse EphA2, recombinant, His-tagged, printed as 58 kDa; also called mEphA2; recombinant mouse EphA2; source: bought: SinoBiological, cat.# 50586-M08H
T3 sequence (Q03145 26-538): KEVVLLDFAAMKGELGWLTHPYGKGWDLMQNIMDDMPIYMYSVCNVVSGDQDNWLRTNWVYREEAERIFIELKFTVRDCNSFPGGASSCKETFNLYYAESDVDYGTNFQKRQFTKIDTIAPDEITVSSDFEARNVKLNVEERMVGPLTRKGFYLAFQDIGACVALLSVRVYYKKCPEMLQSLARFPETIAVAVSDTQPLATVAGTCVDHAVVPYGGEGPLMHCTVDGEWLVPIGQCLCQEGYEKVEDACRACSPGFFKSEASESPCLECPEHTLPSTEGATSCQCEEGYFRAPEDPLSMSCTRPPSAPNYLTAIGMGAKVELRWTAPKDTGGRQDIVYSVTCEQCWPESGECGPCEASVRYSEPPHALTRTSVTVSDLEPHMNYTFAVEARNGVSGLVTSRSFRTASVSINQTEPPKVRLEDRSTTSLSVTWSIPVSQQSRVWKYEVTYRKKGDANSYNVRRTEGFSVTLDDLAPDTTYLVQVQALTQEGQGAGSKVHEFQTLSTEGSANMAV

Binder | Kd [1] [nM] | koff [1] [s⁻¹] | kon [1] [M⁻¹ s⁻¹] | Kd [2] [nM] | Kd [3] [nM]
B1 | 2.4 | 0.00136 | 561000 |  | 
B2 |  |  |  | 0.2 | 0.6
